Values joined by “and” are separate entries in the source; they are usually repeats but may differ in a detail not shown here. Equal entries are not always repeated. “Also recorded” adds a separate entry of the source.
Assays:
Format in all cases: biochemical
Aß1–40 [1] = experiment: Rate of Aß1–40 hydrolysis (HPLC)
Description: (§1) Cleavage of physiological peptides was measured via reverse phase high performance liquid chromatography (HPLC) following incubation of the purified NEP or its mutants with 15 µM insulin B chain (Sigma Aldrich), 24 µM Aß1–40 (Anaspec), or 64 µM leu-ENK (Sigma) in 100 µL of 20 mM MES, pH 6.5, at 37°C. Reactions were run in triplicate. HPLC was carried out in a Vydac C4 column using a linear gradient from 0.1% trifluoroacetic acid (TFA) in 95% water, 5% acetonitrile to 0.1% TFA in 50% acetonitrile/water at a flow rate of 1 mL/min. Peptides and hydrolysis products were detected at 214 nm and quantified by measuring peak areas. Peptides obtained from HPLC were analyzed on an Applied Biosystems 4800 MALDI TOF/TOF Proteomics Analyzer at the University of Kentucky Proteomics core. This facility is supported in part by grant P20RR020171 from the NIH/NCRR.
(§2) Statistical analysis comparing wild-type NEP and its mutants was performed with Prism 4 software using a two-tailed paired t-test with a 95% confidence interval.

Aß1–40 [2] = experiment: Time course of product peak accumulation from Aß1–40
Description: Similar to the analysis conducted with insulin B chain, the linear rate of product accumulation was determined for each peak and normalized to the amount of protein in the reaction, Table 7 . Unlike the hydrolysis of insulin B chain, the hydrolysis of Aß1–40, even at the earliest time points, produced products resulting from multiple cleavage events. Out of the 12 identified product peaks, only 3 could be produced by a single cleavage. Rates for all cleavages were calculated and are given in Figure 4, B–D , but only the three putative primary cleavage sites can be compared.
as §1

[3] = Hydrolysis of synthetic substrate Glut-Ala-Ala-Phe-MNA by NEP and mutants (fluorogenic)
Description: Reactions of 400 µl contained 100 µM Glut-Ala-Ala-Phe-MNA, 1 µg of aminopeptidase and 15 to 100 ng of NEP or mutant NEP depending on their activity in 20 mM MES buffer, pH 6.5. Activity was monitored with a Spectra Max Gemini XS plate reader using an excitation wavelength of 340 nm and an emission wavelength of 425 nm.
(§3) Kinetic constants for NEP and its mutants were obtained using the assay conditions noted above, but with Glut-Ala-Ala-Phe-MNA varied from 20 to 500 µM. Typically 12 data points were obtained. The data were fit to the Michaelis-Menten equation using Prism4 software. The Ki for insulin B chain was obtained by measuring the rate of Glut-Ala-Ala-Phe-MNA hydrolysis in the presence of varying concentrations of insulin B chain from 1 to 40 µM. Data were fit to a Dixon plot (1/rate versus [insulin B chain]) using Prism4 software and the ID50 obtained as the –x intercept, where ID50 corresponds to the concentration of insulin producing 50% inhibition. The actual Ki was obtained from the equation: ID50 = Ki (1+ [Glut-Ala-Ala-Phe-MNA]/KmGlut-Ala-Ala-Phe-MNA), [33].

insulin B chain [4] = experiment: Time course of product peak accumulation from insulin B chain
Excerpt: As a representative of the NEP^F563 and NEP^S546 mutants, we compared the cleavage profile of NEP^F563L and NEP^S546E to that of NEP using time course experiments, Figure 2 . By adjusting the amount of NEP mutant used, the rate of hydrolysis of insulin B chain by all NEP forms was virtually identical. […] Since rates were based on peak areas measured at 214 nm, which in turn is dependent on both the number of peptide bonds and the number of aromatic residues within a given peptide, only the observed rates of change for a particular peptide product can be compared between enzyme forms. A comparison of the rate of change of different peaks within the same enzyme form or between enzyme forms is not valid under our conditions of analysis.
as §1

leu-ENK [5] = experiment: Dual substrate assay: leu-ENK hydrolysis in presence of insulin B chain; settings: 15 µM insulin B chain and 64 µM leu-ENK together, 37°C, 20 mM MES buffer, pH 6.5
Description: (§4) The rate of cleavage of a substrate mixture is determined by both the kcat for that substrate as well by the affinity for the substrate. […] This is expected, given that each peptide acts as a competitive inhibitor of the other. […] That is the ratio for leu-ENK/insulin B chain cleavage is 3 for NEP^S546E compared to 6 for wild-type NEP.
as §1

[6] = test system: leu-ENK and insulin B chain; experiment: Dual substrate assay: substrate preference leu-ENK versus insulin B chain
Description: as §4, §1

insulin B chain [7] = experiment: Rate of insulin B chain hydrolysis (HPLC)
Description: as §1, §2

insulin B chain [8] = experiment: Insulin B chain as alternate substrate (competitive) inhibitor of Glut-Ala-Ala-Phe-MNA hydrolysis (Dixon plot); settings: insulin B chain 1 to 40 µM as competitive inhibitor of Glut-Ala-Ala-Phe-MNA hydrolysis by the enzyme form, 37°C, 20 mM MES, pH 6.5, ID50 converted to Ki
Description: as §3

leu-ENK [9] = experiment: Rate of leu-ENK hydrolysis (HPLC)
Description: as §1, §2

insulin B chain [10] = experiment: Dual substrate assay: insulin B chain hydrolysis in presence of leu-ENK; settings: 15 µM insulin B chain and 64 µM leu-ENK together, 37°C, 20 mM MES buffer, pH 6.5
Description: as §4, §1

[11] = 24 µM Aß1–40, 37°C, 20 mM MES, pH 6.5, 0-360 min, HPLC peak area, linear phase
[12] = 15 µM insulin B chain, 37°C, 20 mM MES, pH 6.5, 0-180 min, HPLC peak area 214 nm, linear phase

Activity relative to wild-type enzyme (Figure S2 legend, in words) [3]: same activity as wild-type enzyme
Ki (insulin B chain [8]): 1500 ± 300 nM
B1: NEP^F563L: neprilysin active site mutant, Phe563 to leucine (protein, UniProt P08473 2-750, looked up, variant F563L)
Neprilysin: GKSESQMDITDINTPKPKKKQRWTPLEISLSVLVLLLTIIAVTMIALYATYDDGICKSSDCIKSAARLIQNMDATTEPCTDFFKYACGGWLKRNVIPETSSRYGNFDILRDELEVVLKDVLQEPKTEDIVAVQKAKALYRSCINESAIDSRGGEPLLKLLPDIYGWPVATENWEQKYGASWTAEKAIAQLNSKYGKKVLINLFVGTDDKNSVNHVIHIDQPRLGLPSRDYYECTGIYKEACTAYVDFMISVARLIRQEERLPIDENQLALEMNKVMELEKEIANATAKPEDRNDPMLLYNKMTLAQIQNNFSLEINGKPFSWLNFTNEIMSTVNISITNEEDVVVYAPEYLTKLKPILTKYSARDLQNLMSWRFIMDLVSSLSRTYKESRNAFRKALYGTTSETATWRRCANYVNGNMENAVGRLYVEAAFAGESKHVVEDLIAQIREVFIQTLDDLTWMDAETKKRAEEKALAIKERIGYPDDIVSNDNKLNNEYLELNYKEDEYFENIIQNLKFSQSKQLKKLREKVDKDEWISGAAVVNAFYSSGRNQIVFPAGILQPPLFSAQQSNSLNYGGIGMVIGHEITHGFDDNGRNFNKDGDLVDWWTQQSASNFKEQSQCMVYQYGNFSWDLAGGQHLNGINTLGENIADNGGLGQAYRAYQNYIKKNGEEKLLPGLDLNHKQLFFLNFAQVWCGTYRPEYAVNSIKTDVHSPGNFRIIGTLQNSAEFSEAFHCRKNSYMNPEKKCRVW
Rate of hydrolysis of Aß1–40 (Aß1–40 [1]; 24 µM Aß1–40, 37°C, 20 mM MES buffer, pH 6.5, disappearance of substrate by HPLC, at least triplicate): 116 ± 4 fmol/min/ng
Aß1–40 hydrolysis rate relative to wild-type NEP (Aß1–40 [1]; overall rate as fraction/times of wild-type rate, 24 µM Aß1–40): nearly half the rate of the wild-type enzyme
Accumulation rate of peak Aß 1–9 (single cleavage G^9-Y^10) (Aß1–40 [2]; [11]): 0 Δarea/min/ng
Accumulation rate of peak Aß 1–16 (single cleavage K^16-L^17) (Aß1–40 [2]; [11]): 17 Δarea/min/ng
Accumulation rate of peak Aß 1–17 (single cleavage L^17-V^18) (Aß1–40 [2]; [11]): 22 Δarea/min/ng
Accumulation rate of peak Aß 4–9 (dual cleavages A^3-F^4, G^9-Y^10) (Aß1–40 [2]; [11]): 5 Δarea/min/ng
Accumulation rate of peak Aß 4–16 (dual cleavages A^3-F^4, K^16-L^17) (Aß1–40 [2]; [11]): 5 Δarea/min/ng
Accumulation rate of peak Aß 4–17 (dual cleavages A^3-F^4, L^17-V^18) (Aß1–40 [2]; [11]): 12 Δarea/min/ng
Accumulation rate of peak Aß 10–16 (dual cleavages G^9-Y^10, K^16-L^17) (Aß1–40 [2]; [11]): 11 Δarea/min/ng
Accumulation rate of peak Aß 10–17 (dual cleavages G^9-Y^10, L^17-V^18) (Aß1–40 [2]; [11]): 8 Δarea/min/ng
Accumulation rate of peak Aß 12–17 (dual cleavages E^11-V^12, L^17-V^18) (Aß1–40 [2]; [11]): 1 Δarea/min/ng
Accumulation rate of peak Aß 20–28 (dual cleavages F^19-F^20, K^28-G^29) (Aß1–40 [2]; [11]): 5 Δarea/min/ng
Accumulation rate of peak Aß 20–29 (dual cleavages F^19-F^20, G^29-A^30) (Aß1–40 [2]; [11]): 6 Δarea/min/ng
Accumulation rate of peak Aß 20–30 (dual cleavages F^19-F^20, A^30-I^31) (Aß1–40 [2]; [11]): 26 Δarea/min/ng
Presence of wild-type product peaks from Aß1–40 (in words) (Aß1–40 [2]; HPLC profile at ∼30% hydrolysis, Aß1–9 peak in case of NEP^F563L): the peak corresponding to Aß1–9 was not present
Cleavage at L^17-V^18 in Aß1–40 relative to wild-type NEP (Aß1–40 [2]; product Aß1–17): 25%
Cleavage of the G^9-Y^10 bond in Aß1–40 (in words) (Aß1–40 [2]; versus NEP, inferred from Aß1–9, Aß10–17): much slower rate; also recorded: appears to cleave the G^9-Y^10 bond
Specific Activity (Glut-Ala-Ala-Phe-MNA cleavage) ([3]; 100 µM Glut-Ala-Ala-Phe-MNA, 37°C, 20 mM MES buffer, pH 6.5, fluorescence ex 340 nm, em 425 nm): 44 pmol/min/ng and 43.6 ± 0.1 pmol/min/ng
Km ([3]; Glut-Ala-Ala-Phe-MNA 20 to 500 µM, 37°C, 20 mM MES buffer, pH 6.5, Michaelis-Menten fit): 81 ± 11 µM
Rate of accumulation of peak 1–5 (single cleavage H^5-L^6) (insulin B chain [4]; [12]): 83 Δarea/min/ng
Rate of accumulation of peak 1–10 (single cleavage H^10-L^11) (insulin B chain [4]; [12]): 135 Δarea/min/ng
Rate of accumulation of peak 1–11 (single cleavage L^11-V^12) (insulin B chain [4]; [12]): 16 Δarea/min/ng
Rate of accumulation of peak 1–14 (single cleavage A^14-L^15) (insulin B chain [4]; [12]): 266 Δarea/min/ng
Rate of accumulation of peak 1–16 (single cleavage Y^16-L^17) (insulin B chain [4]; [12]): 25 Δarea/min/ng
Rate of accumulation of peak 15–23 (two cleavages A^14-L^15, G^23-F^24) (insulin B chain [4]; [12]): 64 Δarea/min/ng
Rate of accumulation of peak 15–30 (single cleavage A^14-L^15) (insulin B chain [4]; [12]): 282 Δarea/min/ng
Rate of accumulation of peak 17–24 (two cleavages Y^16-L^17, F^24-F^25) (insulin B chain [4]; [12]): 25 Δarea/min/ng
Rate of accumulation of peak 17–30 (single cleavage Y^16-L^17) (insulin B chain [4]; [12]): 112 Δarea/min/ng
Rate of accumulation of peak 24–30 (single cleavage G^23-F^24) (insulin B chain [4]; [12]): 290 Δarea/min/ng
Unique or missing cleavage sites in insulin B chain versus NEP (insulin B chain [4]; 30% substrate hydrolysis, HPLC profile): no unique or missing cleavage sites
Cleavage at A^14-L^15 in insulin B chain relative to NEP (insulin B chain [4]; times the NEP rate): ~1.4
Cleavage at H^5-L^6 in insulin B chain relative to NEP (insulin B chain [4]; times the NEP rate): ~1.4
Cleavage at H^10-L^11 in insulin B chain relative to NEP (insulin B chain [4]; times the NEP rate): 0.8
Cleavage at L^11-V^12 in insulin B chain relative to NEP (insulin B chain [4]; times the NEP rate): 0.2
Cleavage at Y^16-L^17 in insulin B chain relative to NEP (insulin B chain [4]; times the NEP rate): ~0.7
leu-ENK hydrolysis rate, dual substrate assay (leu-ENK [5]): 0.97 ± 0.06 pmol/min/ng
leu-ENK hydrolysis, activity relative to the uninhibited value (leu-ENK [5]; numbers in parenthesis): 0.62
Substrate preference leu-ENK/insulin B chain (in words) ([6]; dual substrate assay, versus wild-type): no change in overall substrate preference
Ratio leu-ENK insulin B chain ([6]; ratio of rates, 15 µM insulin B chain and 64 µM leu-ENK together): 5.1
Rate of hydrolysis of Insulin B Chain (insulin B chain [7]; 15 µM insulin B chain, 37°C, 20 mM MES buffer, pH 6.5, disappearance of substrate by HPLC, at least triplicate): 1.17 ± 0.18 pmol/min/ng
Insulin B chain hydrolysis rate relative to NEP (insulin B chain [7]; overall rate, 15 µM insulin B chain): 1.4 times
Preference for insulin B chain over Aß1–40 (insulin B chain [7]; relative to NEP, from separate single-substrate rates): greater than 2 fold
Rate of hydrolysis of leu-ENK (leu-ENK [9]; 64 µM leu-ENK, 37°C, 20 mM MES buffer, pH 6.5, disappearance of substrate by HPLC, at least triplicate): 1.57 ± 0.32 pmol/min/ng
leu-ENK cleavage rate relative to wild-type NEP rate (leu-ENK [9]; 64 µM leu-ENK, pH 6.5, 37°C): approximately 80%
Activity for both Glut-Ala-Ala-Phe-MNA and leu-ENK (in words) (leu-ENK [9]; versus wild-type): near wild-type levels of activity
Insulin B Chain hydrolysis rate, dual substrate assay (insulin B chain [10]): 0.19 ± 0.03 pmol/min/ng
